Experimental data taken from publication PMC3929611 (2014).
Primed or numbered codes have the meaning given here. Ends that are not written are not given here. FITC′ = fluorescein isothiocyanate

T1: FITC-labeled β2 peptide (rat, UniProt P63138)
T1 peptide: {FITC′}-MWRVRKRGYFGIWSFPLII

T2: FITC-labeled α1 peptide (rat)
T2 peptide: {FITC′}-QPSQDELKDNTTVFT

B1: G8 scFv (anti-β2 subunit scFv), soluble protein (scFv, V domains shown)
VH: EVQLVQSGAEVKKPGATVKISCKVSGYTFTDYYMHWVQQAPGKGLEWMGLVDPEDGETIYAEKFQGRVTITADTSTDTAYMELSSLRSEDTAVYYCATTPPHDYYDSSGLDYWGQGTLVTVSS
VL: DIQMTQSPSSVSASVGDRVTITCRASQGINRWLAWYQQKPGKAPKLLIYAASNLQSGVPSRFSGSGSGTDFSLTISSLQPEDFATYYCQQSYSPPSTFGGGTKLEIK
B2: A10 scFv (anti-α1 subunit-specific scFv), soluble protein (scFv, V domains shown)
VH: EVQLVQSGAEVKKPGASVKVSCKASGYTFTSYYMHWVRQAPGQGLEWMGIINPSGGSTSYAQKFQGRVTMTRDTSTSTVYMELSSLRSEDTAVYYCARDGWGGSSFLDYWGQGTLVTVSS
VL: SYELTQPPSVSVSPGQTARITCSGDALPKKYAYWYQQKSGQAPVLVIYEDSKRPSGIPERFSGSSSGTMATLTISGAQVEDEADYYCYSKDNTGYQMVFGGGTKLTVL

What was measured:
FITC-labeled β2 peptide = target: T1, FITC-labeled β2 peptide; assay: FP
FITC-labeled α1 peptide = target: T2, FITC-labeled α1 peptide; assay: FP

Binder	Kd (FITC-labeled β2 peptide) [nM]	Kd (FITC-labeled α1 peptide) [nM]
B1	820	–
B2	–	3000
